Values of other authors in article PMC7035337.

Molecular target: vimentin (Homo sapiens) (UniProt P08670)
Sequence (P08670 2-466): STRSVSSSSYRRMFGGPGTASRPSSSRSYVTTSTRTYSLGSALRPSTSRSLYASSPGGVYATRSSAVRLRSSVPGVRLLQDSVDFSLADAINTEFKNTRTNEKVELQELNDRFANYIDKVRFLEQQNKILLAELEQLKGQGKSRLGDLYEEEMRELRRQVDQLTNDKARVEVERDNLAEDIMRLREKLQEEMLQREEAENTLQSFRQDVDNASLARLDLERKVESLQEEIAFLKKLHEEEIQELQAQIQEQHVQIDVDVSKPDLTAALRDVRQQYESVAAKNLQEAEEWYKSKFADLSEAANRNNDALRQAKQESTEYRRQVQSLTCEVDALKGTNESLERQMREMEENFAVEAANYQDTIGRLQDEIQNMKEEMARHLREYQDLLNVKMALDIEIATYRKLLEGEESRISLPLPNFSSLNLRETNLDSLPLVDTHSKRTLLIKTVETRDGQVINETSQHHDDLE

Chain of envoplakin PRD (Q92817 1822-2014): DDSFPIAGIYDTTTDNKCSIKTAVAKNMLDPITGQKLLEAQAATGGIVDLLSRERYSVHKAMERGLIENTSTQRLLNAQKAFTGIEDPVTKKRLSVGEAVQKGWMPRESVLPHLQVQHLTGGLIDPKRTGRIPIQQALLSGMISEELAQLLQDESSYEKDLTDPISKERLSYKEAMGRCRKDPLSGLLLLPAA

Which Kd does the source give for envoplakin PRD (from UniProt Q92817) here?
Its Kd is 19.1 µM.
